Measured values from IntAct's records for PubMed 29039417.

B1: BBSome complex member BBS2 (Homo sapiens), Q9BXC9 (parent)
chain: MLLPVFTLKLRHKISPRMVAIGRYDGTHPCLAAATQTGKVFIHNPHTRNQHVSASRVFQSPLESDVSLLSINQAVSCLTAGVLNPELGYDALLVGTQTNLLAYDVYNNSDLFYREVADGANAIVLGTLGDISSPLAIIGGNCALQGFNHEGSDLFWTVTGDNVNSLALCDFDGDGKKELLVGSEDFDIRVFKEDEIVAEMTETEIVTSLCPMYGSRFGYALSNGTVGVYDKTSRYWRIKSKNHAMSIHAFDLNSDGVNELITGWSNGKVDARSDRTGEVIFKDNFSSAIAGVVEGDYRMDGHIQLICCSVDGEIRGYLPGTAEMRGNLMDTSAEQDLIRELSQKKQNLLLELRNYEENAKAELASPLNEADGHRGIIPANTRLHTTLSVSLGNETQTAHTELRISTSNDTIIRAVLIFAEGIFTGESHVVHPSIHNLSSSICIPIVPPKDVPVDLHLKAFVGYRSSTQFHVFESTRQLPRFSMYALTSLDPASEPISYVNFTIAERAQRVVVWLGQNFLLPEDTHIQNAPFQVCFTSLRNGGHLHIKIKLSGEITINTDDIDLAGDIIQSMASFFAIEDLQVEADFPVYFEELRKVLVKVDEYHSVHQKLSADMADHSNLIRSLLVGAEDARLMRDMKTMKSRYMELYDLNRDLLNGYKIRCNNHTELLGNLKAVNQAIQRAGRLRVGKPKNQVITACRDAIRSNNINTLFKIMRVGTASS
partner: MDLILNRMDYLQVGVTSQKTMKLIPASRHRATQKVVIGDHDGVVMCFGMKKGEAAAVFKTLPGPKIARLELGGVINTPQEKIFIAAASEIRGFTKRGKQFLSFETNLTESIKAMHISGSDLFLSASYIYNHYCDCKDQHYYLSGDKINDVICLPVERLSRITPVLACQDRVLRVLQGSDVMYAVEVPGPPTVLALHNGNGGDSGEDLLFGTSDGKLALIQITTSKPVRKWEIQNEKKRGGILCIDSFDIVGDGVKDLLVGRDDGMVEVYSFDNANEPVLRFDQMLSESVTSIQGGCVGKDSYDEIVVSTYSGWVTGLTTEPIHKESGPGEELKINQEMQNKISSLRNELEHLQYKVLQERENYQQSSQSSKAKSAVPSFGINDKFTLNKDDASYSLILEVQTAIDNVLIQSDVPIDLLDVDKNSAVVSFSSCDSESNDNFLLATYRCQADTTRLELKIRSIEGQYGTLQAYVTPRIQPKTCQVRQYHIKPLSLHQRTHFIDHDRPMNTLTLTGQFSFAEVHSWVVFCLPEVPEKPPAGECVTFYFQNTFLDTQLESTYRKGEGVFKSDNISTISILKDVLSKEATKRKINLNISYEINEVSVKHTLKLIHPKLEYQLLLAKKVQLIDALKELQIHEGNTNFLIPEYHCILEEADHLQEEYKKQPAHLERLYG

Variants of: B1
Conditions: with BBS7, Q8IWZ6-2

Variant | effect of a mutation on the interaction
R539A | with no effect
R539E | with no effect
N692A | with no effect
W513R | disrupting interaction strength
W513E | disrupting interaction strength
E369K | with no effect
E369A | with no effect
P690K | with no effect
L520E | with no effect
F472A | disrupting interaction strength
Q343A | with no effect
I338E | with no effect
I338K | with no effect
V687K | with no effect
R476E | with no effect
L655E | with no effect
K599A | with no effect
V499R | disrupting interaction strength
R325A | with no effect
V446E | with no effect
A719K | with no effect
E602A | with no effect

Variant | effect of a mutation on the interaction
E602K | with no effect
Y658K | with no effect
F469A | with no effect
L363K | with no effect
L550E | with no effect
G542K | with no effect
R715A | with no effect
R715K | with no effect
I679E | disrupting interaction strength
E592K | with no effect
S720A | with no effect
T639K | with no effect
R632K | with no effect
I556A | with no effect
Q508E | with no effect
A370K | with no effect
A370E | with no effect
N619K | with no effect
N619A | with no effect
V453E | with no effect
T386K | with no effect
L610A | disrupting interaction strength

Variant | effect of a mutation on the interaction
T385A | with no effect
I702K | with no effect
I702E | with no effect
V596E | with no effect
A584E | with no effect
T395K | with no effect
K549A | with no effect
D579E | with no effect
S440E | disrupting interaction strength
D562A | disrupting interaction strength
H431A | with no effect
F501S | disrupting interaction strength
F501E | disrupting interaction strength
F501K | disrupting interaction strength
D649E | with no effect
H456A | with no effect
C534K | with no effect
S405E | with no effect
F531A | with no effect
Q468K | with no effect
G627E | with no effect
L489K | with no effect

Variant | effect of a mutation on the interaction
L489E | with no effect
T467A | with no effect
D336E | with no effect
S573A | with no effect
S573K | with no effect
A504S | disrupting interaction strength
Q581A | with no effect
T475A | with no effect
Q346A | with no effect
Q346K | with no effect
G375A | with no effect
G375E | with no effect
D653E | with no effect
Q680A | with no effect
I434E | with no effect
Q516A | with no effect
I567K | with no effect
A564E | with no effect
S618E | with no effect
D601A | with no effect
D601K | with no effect
